B1: anti-IL-6 antibody, heavy chain I51Q, G66D / light chain M32L, M50D, N52S, M88Q (antibody, human IgG1, V domains shown)
VH: EVQLVESGGGLVQPGGSLRLSCAASGFTFSPFAMSWVRQAPGKGLEWVAKQSPGGSWTYYSDTVTDRFTFSLDTSKSTAYLQMNSLRAEDTAVYYCARQLWGYYALDIWGQGTLVTVSS
VL: DIQLTQSPSSLSASVGDRVTITCSASISVSYLYWYQQKPGKAPKLLIYDDSSLASGVPSRFSGSGSGTDFTLTISSLQPEDFATYYCQQWSGYPYTFGQGTKVEIK
notes: Human IgG1
B2: anti-IL-6 antibody, heavy chain T63V, G66D / light chain M32L, M50D, N52S, M88Q (antibody, human IgG1, V domains shown)
VH: B1 VH with Q51I, T63V
VL: B1 VL
notes: Human IgG1
B3: anti-IL-6 antibody, heavy chain S35P, G66D / light chain M32L, M50D, N52S, M88Q (antibody, human IgG1, V domains shown)
VH: B1 VH with S35P, Q51I
VL: B1 VL
notes: Human IgG1
B4: anti-IL-6 antibody, heavy chain I51V, G66D / light chain M32L, M50D, N52S, M88Q (antibody, human IgG1, V domains shown)
VH: B1 VH with Q51V
VL: B1 VL
notes: Human IgG1
B5: anti-IL-6 antibody, heavy chain S35V, G66D / light chain M32L, M50D, N52S, M88Q (antibody, human IgG1, V domains shown)
VH: B1 VH with S35V, Q51I
VL: B1 VL
notes: Human IgG1
B6: anti-IL-6 antibody, heavy chain S35I, G66D / light chain M32L, M50D, N52S, M88Q (antibody, human IgG1, V domains shown)
VH: B1 VH with S35I, Q51I
VL: B1 VL
notes: Human IgG1
B7: anti-IL-6 antibody, heavy chain I51Y, G66D / light chain M32L, M50D, N52S, M88Q (antibody, human IgG1, V domains shown)
VH: B1 VH with Q51Y
VL: B1 VL
notes: Human IgG1
B8: anti-IL-6 antibody, heavy chain I51S, G66D / light chain M32L, M50D, N52S, M88Q (antibody, human IgG1, V domains shown)
VH: B1 VH with Q51S
VL: B1 VL
notes: Human IgG1
B9: anti-IL-6 antibody, heavy chain S35W, G66D / light chain M32L, M50D, N52S, M88Q (antibody, human IgG1, V domains shown)
VH: B1 VH with S35W, Q51I
VL: B1 VL
notes: Human IgG1
B10: anti-IL-6 antibody, heavy chain T63L, G66D / light chain M32L, M50D, N52S, M88Q (antibody, human IgG1, V domains shown)
VH: B1 VH with Q51I, T63L
VL: B1 VL
notes: Human IgG1
B11: anti-IL-6 antibody, heavy chain T63R, G66D / light chain M32L, M50D, N52S, M88Q (antibody, human IgG1, V domains shown)
VH: B1 VH with Q51I, T63R
VL: B1 VL
notes: Human IgG1
B12: anti-IL-6 antibody, heavy chain S35L, G66D / light chain M32L, M50D, N52S, M88Q (antibody, human IgG1, V domains shown)
VH: B1 VH with S35L, Q51I
VL: B1 VL
notes: Human IgG1
B13: anti-IL-6 antibody, heavy chain T63A, G66D / light chain M32L, M50D, N52S, M88Q (antibody, human IgG1, V domains shown)
VH: B1 VH with Q51I, T63A
VL: B1 VL
notes: Human IgG1
B14: anti-IL-6 antibody, heavy chain I51W, G66D / light chain M32L, M50D, N52S, M88Q (antibody, human IgG1, V domains shown)
VH: B1 VH with Q51W
VL: B1 VL
notes: Human IgG1
B15: anti-IL-6 antibody, heavy chain S35K, G66D / light chain M32L, M50D, N52S, M88Q (antibody, human IgG1, V domains shown)
VH: B1 VH with S35K, Q51I
VL: B1 VL
notes: Human IgG1
B16: anti-IL-6 antibody, heavy chain T63H, G66D / light chain M32L, M50D, N52S, M88Q (antibody, human IgG1, V domains shown)
VH: B1 VH with Q51I, T63H
VL: B1 VL
notes: Human IgG1
B17: anti-IL-6 antibody, heavy chain S35T, G66D / light chain M32L, M50D, N52S, M88Q (antibody, human IgG1, V domains shown)
VH: B1 VH with S35T, Q51I
VL: B1 VL
notes: Human IgG1
B18: anti-IL-6 antibody, heavy chain I51R, G66D / light chain M32L, M50D, N52S, M88Q (antibody, human IgG1, V domains shown)
VH: B1 VH with Q51R
VL: B1 VL
notes: Human IgG1
B19: anti-IL-6 antibody, heavy chain T63D, G66D / light chain M32L, M50D, N52S, M88Q (antibody, human IgG1, V domains shown)
VH: B1 VH with Q51I, T63D
VL: B1 VL
notes: Human IgG1
B20: anti-IL-6 antibody, heavy chain T63G, G66D / light chain M32L, M50D, N52S, M88Q (antibody, human IgG1, V domains shown)
VH: B1 VH with Q51I, T63G
VL: B1 VL
notes: Human IgG1
B21: anti-IL-6 antibody, heavy chain T63F, G66D / light chain M32L, M50D, N52S, M88Q (antibody, human IgG1, V domains shown)
VH: B1 VH with Q51I, T63F
VL: B1 VL
notes: Human IgG1
B22: anti-IL-6 antibody, heavy chain T63S, G66D / light chain M32L, M50D, N52S, M88Q (antibody, human IgG1, V domains shown)
VH: B1 VH with Q51I, T63S
VL: B1 VL
notes: Human IgG1
B23: anti-IL-6 antibody, heavy chain T63P, G66D / light chain M32L, M50D, N52S, M88Q (antibody, human IgG1, V domains shown)
VH: B1 VH with Q51I, T63P
VL: B1 VL
notes: Human IgG1
B24: anti-IL-6 antibody, heavy chain S35E, G66D / light chain M32L, M50D, N52S, M88Q (antibody, human IgG1, V domains shown)
VH: B1 VH with S35E, Q51I
VL: B1 VL
notes: Human IgG1
B25: anti-IL-6 antibody, heavy chain S35F, G66D / light chain M32L, M50D, N52S, M88Q (antibody, human IgG1, V domains shown)
VH: B1 VH with S35F, Q51I
VL: B1 VL
notes: Human IgG1
B26: anti-IL-6 antibody, heavy chain S35Y, G66D / light chain M32L, M50D, N52S, M88Q (antibody, human IgG1, V domains shown)
VH: B1 VH with S35Y, Q51I
VL: B1 VL
notes: Human IgG1
B27: anti-IL-6 antibody, heavy chain T63I, G66D / light chain M32L, M50D, N52S, M88Q (antibody, human IgG1, V domains shown)
VH: B1 VH with Q51I, T63I
VL: B1 VL
notes: Human IgG1
B28: anti-IL-6 antibody, heavy chain S35Q, G66D / light chain M32L, M50D, N52S, M88Q (antibody, human IgG1, V domains shown)
VH: B1 VH with S35Q, Q51I
VL: B1 VL
notes: Human IgG1
B29: anti-IL-6 antibody, heavy chain S35D, G66D / light chain M32L, M50D, N52S, M88Q (antibody, human IgG1, V domains shown)
VH: B1 VH with S35D, Q51I
VL: B1 VL
notes: Human IgG1
B30: anti-IL-6 antibody, heavy chain S35G, G66D / light chain M32L, M50D, N52S, M88Q (antibody, human IgG1, V domains shown)
VH: B1 VH with S35G, Q51I
VL: B1 VL
notes: Human IgG1
B31: anti-IL-6 antibody, heavy chain I51T, G66D / light chain M32L, M50D, N52S, M88Q (antibody, human IgG1, V domains shown)
VH: B1 VH with Q51T
VL: B1 VL
notes: Human IgG1
B32: anti-IL-6 antibody, heavy chain S35A, G66D / light chain M32L, M50D, N52S, M88Q (antibody, human IgG1, V domains shown)
VH: B1 VH with S35A, Q51I
VL: B1 VL
notes: Human IgG1

Numbering of substitutions follows the chain as printed. Names and notes keep the numbering of the source.

For 32 molecules, Kd, koff and kon results are on record in patent publication US20240209076A1 (KODIAK SCIENCES, published 2024).

human IL-6, sequence (P05231 30-212 limits assumed): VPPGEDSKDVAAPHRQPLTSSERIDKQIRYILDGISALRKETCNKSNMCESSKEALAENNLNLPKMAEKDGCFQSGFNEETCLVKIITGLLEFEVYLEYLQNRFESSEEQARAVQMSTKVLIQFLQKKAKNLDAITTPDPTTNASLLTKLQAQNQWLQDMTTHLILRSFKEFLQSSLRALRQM

This experiment concerns the target human IL-6 (human, UniProt P05231 30-212). Briefly: SPR (Biacore), supernatant antibody on Protein A chip, IL-6 flowed, 37 C. On the procedure:
Antibodies were captured on a Protein A chip (GE) by injecting 1:20 cell supernatant dilutions at 10 μL/min for 60 seconds. […] The sensor chip was regenerated by a 60 seconds injection of 10 mM Glycine pH 1.7 at the flow rate of 50 μL/min. […] For this setup, 1 μg/mL of purified antibody was injected over a Protein A chip at 10 μL/min for 25 seconds. […] The sensor chip was regenerated by a 60 seconds injection of 10 mM Glycine pH 1.7 at flow rate of 50 μL/min. Data analysis for supernatant and purified samples were performed using BIAevaluation software (GE). All sensorgrams were double reference subtracted and fit using a 1:1 Langmuir binding model.
In general terms: In SPR one partner is held on a chip, and binding of the other changes the refractive index at the surface.
Turning to B1, the Kd was 0.575 nM, the off-rate constant (koff) was 0.00113 s⁻¹ and the kon was 1.96e+06 M⁻¹ s⁻¹.

For B2, binding was characterised by a dissociation constant (Kd) of 0.274 nM, the dissociation rate constant (koff) worked out at 0.00043 s⁻¹ and the kon came to 1.57e+06 M⁻¹ s⁻¹.

In the case of B3, the dissociation constant Kd worked out at 27.1 nM, the koff was 0.00548 s⁻¹ and the on-rate (kon) was found to be 202000 M⁻¹ s⁻¹.

B4 displayed a dissociation constant Kd of 1.11 nM, a koff of 0.00195 s⁻¹ and a kon of 1.76e+06 M⁻¹ s⁻¹.

B5 returned a Kd of 1.33 nM, a koff of 0.00137 s⁻¹ and a kon of 1.03e+06 M⁻¹ s⁻¹.

B6 returned a Kd of 1.62 nM, a koff of 0.00147 s⁻¹ and a kon of 904000 M⁻¹ s⁻¹.

In the case of B7, the Kd stood at 4.04 nM, the koff amounted to 0.0247 s⁻¹ and the on-rate (kon) amounted to 6.1e+06 M⁻¹ s⁻¹.

Turning to B8, binding was put at a Kd of 0.217 nM, the koff worked out at 0.000401 s⁻¹ and the kon was 1.85e+06 M⁻¹ s⁻¹.

In turn, B9 showed a Kd of 34.6 nM, a koff of 0.00591 s⁻¹ and a kon of 171000 M⁻¹ s⁻¹.

Molecule B10 came in with a Kd of 0.283 nM, a dissociation rate constant (koff) of 0.000454 s⁻¹ and a kon of 1.6e+06 M⁻¹ s⁻¹.

B11 had a Kd of 0.273 nM, a koff of 0.000526 s⁻¹ and a kon of 1.92e+06 M⁻¹ s⁻¹.

The molecule B12 had an equilibrium dissociation constant (Kd) of 2.59 nM, a koff of 0.00243 s⁻¹ and a kon of 942000 M⁻¹ s⁻¹.

In turn, B13 returned a Kd of 0.268 nM, a koff of 0.000458 s⁻¹ and a kon of 1.7e+06 M⁻¹ s⁻¹.

B14 gave a Kd of 4.84 nM, a koff of 0.00383 s⁻¹ and a kon of 791000 M⁻¹ s⁻¹.

In the case of B15, the Kd is 2.64 nM, the koff was found to be 0.00346 s⁻¹ and the kon was determined as 1.31e+06 M⁻¹ s⁻¹.

Take B16: binding was put at a Kd of 0.28 nM, the koff is 0.000481 s⁻¹ and the kon turned out to be 1.72e+06 M⁻¹ s⁻¹.

B17 returned an equilibrium dissociation constant (Kd) of 0.498 nM, a koff of 0.000711 s⁻¹ and a kon of 1.43e+06 M⁻¹ s⁻¹.

B18 yielded a dissociation constant (Kd) of 0.0357 nM, a koff of 5.8e-05 s⁻¹ and a kon of 1.63e+06 M⁻¹ s⁻¹.

Regarding B19, binding was put at a Kd of 0.249 nM, the koff worked out at 0.000413 s⁻¹ and the association rate constant (kon) was determined as 1.66e+06 M⁻¹ s⁻¹.

B20 returned a Kd of 0.261 nM, a koff of 0.00045 s⁻¹ and an on-rate constant (kon) of 1.73e+06 M⁻¹ s⁻¹.

For the molecule B21, binding was characterised by a dissociation constant (Kd) of 0.274 nM, the koff worked out at 0.000459 s⁻¹ and the kon worked out at 1.67e+06 M⁻¹ s⁻¹.

With B22, the Kd was 0.278 nM, the koff is 0.000499 s⁻¹ and the kon stood at 1.8e+06 M⁻¹ s⁻¹.

In turn, B23 showed a Kd of 0.246 nM, a koff of 0.000419 s⁻¹ and a kon of 1.7e+06 M⁻¹ s⁻¹.

In turn, B24 returned a Kd of 0.867 nM, a koff of 0.00189 s⁻¹ and a kon of 2.18e+06 M⁻¹ s⁻¹.

As to B25, the Kd was determined as 3.17 nM, the koff came out at 0.00484 s⁻¹ and the on-rate (kon) is 1.53e+06 M⁻¹ s⁻¹.

For the molecule B26, the Kd turned out to be 3.43 nM, the koff worked out at 0.00404 s⁻¹ and the kon was determined as 1.18e+06 M⁻¹ s⁻¹.

Regarding B27, the dissociation constant (Kd) was determined as 0.288 nM, the koff worked out at 0.000446 s⁻¹ and the kon is 1.55e+06 M⁻¹ s⁻¹.

In turn, B28 yielded a Kd of 0.3 nM, a koff of 0.000626 s⁻¹ and a kon of 2.09e+06 M⁻¹ s⁻¹.

On to B29, for which the Kd is 0.753 nM, the koff stood at 0.00177 s⁻¹ and the kon stood at 2.35e+06 M⁻¹ s⁻¹.

With B30, the dissociation constant (Kd) turned out to be 0.609 nM, the koff came to 0.000781 s⁻¹ and the kon was 1.28e+06 M⁻¹ s⁻¹.

Molecule B31 yielded a Kd of 0.233 nM, a koff of 0.000478 s⁻¹ and a kon of 2.05e+06 M⁻¹ s⁻¹.

On to B32, for which the equilibrium dissociation constant (Kd) came to 0.657 nM, the koff stood at 0.00126 s⁻¹ and the kon was 1.93e+06 M⁻¹ s⁻¹.

What is called Kd is the equilibrium constant for the complex coming apart. A word on the koff: it is a measure of how fast the partners let go of each other. Low values mean slow dissociation, high ones fast dissociation. A word on the kon: it is the rate constant with which the complex forms. Lower therefore signals slow association.
